From paper PMC8991199, “Promiscuity mapping of the S100 protein family using a high-throughput holdup assay” (Scientific Reports, 2022)

B1: S100A3 (natural protein)
chain: MARPLEQAVAAIVCTFQEYAGRCGDKYKLCQAELKELLQKELATWTPTEFRECDYNKFMSVLDTNKDCEVDFVEYVRSLACLCLYCHEYFKDCPSEPPCSQ
B2: S100A8 (natural protein)
chain: MLTELEKALNSIIDVYHKYSLIKGNFHAVYRDDLKKLLETECPQYIRKKGADVWFKELDINTDGAVNFQEFLILVIKMGVAAHKKSHEESHKE
B3: S100B (natural protein)
chain: MSELEKAMVALIDVFHQYSGREGDKHKLKKSELKELINNELSHFLEEIKEQEVVDKVMETLDNDGDGECDFQEFMAFVAMVTTACHEFFEHE
B4: S100A9 (natural protein)
chain: MTCKMSQLERNIETIINTFHQYSVKLGHPDTLNQGEFKELVRKDLQNFLKKENKNEKVIEHIMEDLDTNADKQLSFEEFIMLMARLTWASHEKMHEGDEGPGHHHKPGLGEGTP
B5: S100A16 (natural protein)
chain: MSDCYTELEKAVIVLVENFYKYVSKYSLVKNKISKSSFREMLQKELNHMLSDTGNRKAADKLIQNLDANHDGRISFDEYWTLIGGITGPIAKLIHEQEQQSSS
B6: S100P (natural protein)
chain: MTELETAMGMIIDVFSRYSGSEGSTQTLTKGELKVLMEKELPGFLQSGKDKDAVDKLLKDLDANGDAQVDFSEFIVFVAAITSACHKYFEKAGLK
B7: S100A14 (natural protein)
chain: MGQCRSANAEDAQEFSDVERAIETLIKNFHQYSVEGGKETLTPSELRDLVTQQLPHLMPSNCGLEEKIANLGSCNDSKLEFRSFWELIGEAAKSVKLERPVRGH
B8: S100A11 (natural protein)
chain: MAKISSPTETERCIESLIAVFQKYAGKDGYNYTLSKTEFLSFMNTELAAFTKNQKDPGVLDRMMKKLDTNSDGQLDFSEFLNLIGGLAMACHDSFLKAVPSQKRT
B9: S100G (natural protein)
chain: MSTKKSPEELKRIFEKYAAKEGDPDQLSKDELKLLIQAEFPSLLKGPNTLDDLFQELDKNGDGEVSFEEFQVLVKKISQ
B10: S100A13 (natural protein)
chain: MAAEPLTELEESIETVVTTFFTFARQEGRKDSLSVNEFKELVTQQLPHLLKDVGSLDEKMKSLDVNQDSELKFNEYWRLIGELAKEIRKKKDLKIRKK
B11: S100A12 (natural protein)
chain: MTKLEEHLEGIVNIFHQYSVRKGHFDTLSKGELKQLLTKELANTIKNIKDKAVIDEIFQGLDANQDEQVDFQEFISLVAIALKAAHYHTHKE
B12: S100A5 (natural protein)
chain: METPLEKALTTMVTTFHKYSGREGSKLTLSRKELKELIKKELCLGEMKESSIDDLMKSLDKNSDQEIDFKEYSVFLTMLCMAYNDFFLEDNK
B13: S100Z (natural protein)
chain: MPTQLEMAMDTMIRIFHRYSGKERKRFKLSKGELKLLLQRELTEFLSCQKETQLVDKIVQDLDANKDNEVDFNEFVVMVAALTVACNDYFVEQLKKKGK

Target: fIF, fluorescently labelled H14 foldamer IF
Assay: fluorescence polarisation; direct FP: S100 protein diluted in 50 nM labeled foldamer, 20 mM HEPES pH 7.5, 150 mM NaCl, 1 mM CaCl2, 0.5 mM TCEP, 0.01% Tween20; quadratic fit (ProFit); detection threshold Kd 1 mM

Row | Binder | Kd
1 | B1 | 180 µM
2 | B2 | 750 µM
3 | B3 | 140 µM
4 | B4 | > 1000 µM
5 | B5 | > 1000 µM
6 | B6 | 140 µM
7 | B7 | > 1000 µM
8 | B8 | 280 µM
9 | B9 | > 1000 µM
10 | B10 | > 1000 µM
11 | B11 | 590 µM
12 | B12 | 27 µM
13 | B13 | 480 µM

Target: fIL, fluorescently labelled H14 foldamer IL
Assay: as above

Row | Binder | Kd
14 | B1 | > 1000 µM
15 | B2 | > 1000 µM
16 | B3 | 63 µM
17 | B4 | > 1000 µM
18 | B5 | > 1000 µM
19 | B6 | 330 µM
20 | B7 | > 1000 µM
21 | B8 | > 1000 µM
22 | B9 | > 1000 µM
23 | B10 | > 1000 µM
24 | B11 | > 1000 µM
25 | B12 | 75 µM
26 | B13 | > 1000 µM

Target: fRF, fluorescently labelled H14 foldamer RF
Assay: as above

Row | Binder | Kd
27 | B1 | > 1000 µM
28 | B2 | > 1000 µM
29 | B3 | 230 µM
30 | B4 | > 1000 µM
31 | B5 | > 1000 µM
32 | B6 | 190 µM
33 | B7 | > 1000 µM
34 | B8 | 1000 µM
35 | B9 | > 1000 µM
36 | B10 | > 1000 µM
37 | B11 | > 1000 µM
38 | B12 | 46 µM
39 | B13 | 890 µM

Target: fRR, fluorescently labelled H14 foldamer RR
Assay: as above

Row | Binder | Kd
40 | B1 | > 1000 µM
41 | B2 | > 1000 µM
42 | B3 | 210 µM
43 | B4 | > 1000 µM
44 | B5 | > 1000 µM
45 | B6 | > 1000 µM
46 | B7 | > 1000 µM
47 | B8 | > 1000 µM
48 | B9 | > 1000 µM
49 | B10 | > 1000 µM
50 | B11 | > 1000 µM
51 | B12 | 45 µM
52 | B13 | > 1000 µM

Target: fTI, fluorescently labelled H14 foldamer TI
Assay: as above

Row | Binder | Kd
53 | B1 | > 1000 µM
54 | B2 | > 1000 µM
55 | B3 | > 1000 µM
56 | B4 | > 1000 µM
57 | B5 | > 1000 µM
58 | B6 | > 1000 µM
59 | B7 | > 1000 µM
60 | B8 | > 1000 µM
61 | B9 | > 1000 µM
62 | B10 | > 1000 µM
63 | B11 | > 1000 µM
64 | B12 | 270 µM
65 | B13 | > 1000 µM

Target: fTM, fluorescently labelled H14 foldamer TM
Assay: as above

Row | Binder | Kd
66 | B1 | > 1000 µM
67 | B2 | > 1000 µM
68 | B3 | > 1000 µM
69 | B4 | > 1000 µM
70 | B5 | > 1000 µM
71 | B6 | > 1000 µM
72 | B7 | > 1000 µM
73 | B8 | > 1000 µM
74 | B9 | > 1000 µM
75 | B10 | > 1000 µM
76 | B11 | > 1000 µM
77 | B12 | 200 µM
78 | B13 | > 1000 µM

Target: fTW, fluorescently labelled H14 foldamer TW
Assay: as above

Row | Binder | Kd
79 | B1 | > 1000 µM
80 | B2 | 770 µM
81 | B3 | 280 µM
82 | B4 | > 1000 µM
83 | B5 | > 1000 µM
84 | B6 | 170 µM
85 | B7 | > 1000 µM
86 | B8 | 570 µM
87 | B9 | > 1000 µM
88 | B10 | > 1000 µM
89 | B11 | > 1000 µM
90 | B12 | 62 µM
91 | B13 | 520 µM

Target: fVL, fluorescently labelled H14 foldamer VL
Assay: as above

Row | Binder | Kd
92 | B1 | > 1000 µM
93 | B2 | > 1000 µM
94 | B3 | 50 µM
95 | B4 | > 1000 µM
96 | B5 | > 1000 µM
97 | B6 | > 1000 µM
98 | B7 | > 1000 µM
99 | B8 | > 1000 µM
100 | B9 | > 1000 µM
101 | B10 | > 1000 µM
102 | B11 | > 1000 µM
103 | B12 | 110 µM
104 | B13 | > 1000 µM

Target: fWL, fluorescently labelled H14 foldamer WL
Assay: as above

Row | Binder | Kd
105 | B1 | > 1000 µM
106 | B2 | 74 µM
107 | B3 | 11 µM
108 | B4 | > 1000 µM
109 | B5 | 300 µM
110 | B6 | 75 µM
111 | B7 | > 1000 µM
112 | B8 | > 1000 µM
113 | B9 | > 1000 µM
114 | B10 | > 1000 µM
115 | B11 | 250 µM
116 | B12 | 14 µM
117 | B13 | > 1000 µM

Target: fWW, fluorescently labelled H14 foldamer WW
Assay: as above

Row | Binder | Kd
118 | B1 | 310 µM
119 | B2 | > 1000 µM
120 | B3 | > 1000 µM
121 | B4 | > 1000 µM
122 | B5 | > 1000 µM
123 | B6 | 190 µM
124 | B7 | > 1000 µM
125 | B8 | > 1000 µM
126 | B9 | > 1000 µM
127 | B10 | > 1000 µM
128 | B11 | > 1000 µM
129 | B12 | 77 µM
130 | B13 | > 1000 µM

Target: fYF, fluorescently labelled H14 foldamer YF
Assay: as above

Row | Binder | Kd
131 | B1 | > 1000 µM
132 | B2 | 180 µM
133 | B3 | 28 µM
134 | B4 | > 1000 µM
135 | B5 | > 1000 µM
136 | B6 | 79 µM
137 | B7 | > 1000 µM
138 | B8 | > 1000 µM
139 | B9 | > 1000 µM
140 | B10 | > 1000 µM
141 | B11 | > 1000 µM
142 | B12 | 32 µM
143 | B13 | > 1000 µM
